Source: article PMC5138618

B1: CagL^ΔRGD motif variant, recombinant (natural protein)
chain: EDITSGLKQLDSTYQETNQQVLKNLDEIFSTTSPSANNEMGEEDALNIKKAAIALLALLKANFEANELFFISEDVIFKTYMSSPELLLTYMKINPLDQNTAEQQCGISDKVLVLYCEGKLKIEQEKQNIRERLETSLKAYQSNIGGTASLITASQTLVESLKNKNFIKGIRKLMLAHNKVFLNYLEELDALERSLEQSKRQYLQERQSSKIIVK
B2: CagL^ΔRGDΔTASLI double motif deletion, recombinant (natural protein)
chain: EDITSGLKQLDSTYQETNQQVLKNLDEIFSTTSPSANNEMGEEDALNIKKAAIALLALLKANFEANELFFISEDVIFKTYMSSPELLLTYMKINPLDQNTAEQQCGISDKVLVLYCEGKLKIEQEKQNIRERLETSLKAYQSNIGGTASQTLVESLKNKNFIKGIRKLMLAHNKVFLNYLEELDALERSLEQSKRQYLQERQSSKIIVK

How the values were obtained:
Experiment in all cases: ELISA; ELISA-like multiwell assay: wells coated overnight with 100 ng/well recombinant human integrin heterodimer in 100 mM sodium carbonate pH 9.5; blocked with FCS-containing or FCS-free blocker; purified CagL (2.5, 5, 10, 20 ng/well; 10 ng for the comparison of mutants) incubated 3 h, washed; bound CagL detected with anti-CagL antiserum AK271; values relative to wild type CagL set to 100% after background subtraction
[1] = target: recombinant human integrin α5β1 (human) (UniProt P08648)
[2] = target: recombinant human integrin αvβ5 (human) (UniProt P06756)
[3] = target: recombinant human integrin αvβ6 (human) (UniProt P06756)
recombinant human integrin αvβ6 (human), sequence (P06756 31-1048, chain 1 of 2): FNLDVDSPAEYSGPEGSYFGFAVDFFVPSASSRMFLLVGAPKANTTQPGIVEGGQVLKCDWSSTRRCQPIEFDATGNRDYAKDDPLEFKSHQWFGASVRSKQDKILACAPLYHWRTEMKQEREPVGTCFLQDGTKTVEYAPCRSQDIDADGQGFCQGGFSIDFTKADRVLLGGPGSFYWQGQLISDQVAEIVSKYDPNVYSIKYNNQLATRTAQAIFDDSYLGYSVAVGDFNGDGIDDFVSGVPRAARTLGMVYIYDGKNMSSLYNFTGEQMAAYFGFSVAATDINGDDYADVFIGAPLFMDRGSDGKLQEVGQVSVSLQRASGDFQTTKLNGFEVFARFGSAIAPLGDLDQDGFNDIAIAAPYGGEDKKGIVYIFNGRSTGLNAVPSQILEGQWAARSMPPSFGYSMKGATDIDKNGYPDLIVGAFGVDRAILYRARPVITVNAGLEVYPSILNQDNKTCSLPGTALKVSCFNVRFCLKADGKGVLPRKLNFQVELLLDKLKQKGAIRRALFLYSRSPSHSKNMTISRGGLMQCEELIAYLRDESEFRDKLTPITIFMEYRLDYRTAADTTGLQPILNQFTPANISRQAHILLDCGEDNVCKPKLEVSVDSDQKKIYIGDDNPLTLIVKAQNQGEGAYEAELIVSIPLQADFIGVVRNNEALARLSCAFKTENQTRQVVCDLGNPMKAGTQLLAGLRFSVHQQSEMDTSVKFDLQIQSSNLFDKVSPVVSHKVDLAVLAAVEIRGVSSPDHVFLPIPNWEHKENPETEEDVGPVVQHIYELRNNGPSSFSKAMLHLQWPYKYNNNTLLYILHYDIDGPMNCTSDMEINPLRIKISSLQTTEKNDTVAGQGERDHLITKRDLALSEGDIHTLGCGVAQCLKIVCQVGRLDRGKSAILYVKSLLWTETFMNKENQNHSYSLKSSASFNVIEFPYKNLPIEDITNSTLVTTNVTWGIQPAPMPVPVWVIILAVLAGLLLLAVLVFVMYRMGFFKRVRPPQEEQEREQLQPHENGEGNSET
recombinant human integrin αvβ6 (human), sequence (P18564 22-709, chain 2 of 2, further chain): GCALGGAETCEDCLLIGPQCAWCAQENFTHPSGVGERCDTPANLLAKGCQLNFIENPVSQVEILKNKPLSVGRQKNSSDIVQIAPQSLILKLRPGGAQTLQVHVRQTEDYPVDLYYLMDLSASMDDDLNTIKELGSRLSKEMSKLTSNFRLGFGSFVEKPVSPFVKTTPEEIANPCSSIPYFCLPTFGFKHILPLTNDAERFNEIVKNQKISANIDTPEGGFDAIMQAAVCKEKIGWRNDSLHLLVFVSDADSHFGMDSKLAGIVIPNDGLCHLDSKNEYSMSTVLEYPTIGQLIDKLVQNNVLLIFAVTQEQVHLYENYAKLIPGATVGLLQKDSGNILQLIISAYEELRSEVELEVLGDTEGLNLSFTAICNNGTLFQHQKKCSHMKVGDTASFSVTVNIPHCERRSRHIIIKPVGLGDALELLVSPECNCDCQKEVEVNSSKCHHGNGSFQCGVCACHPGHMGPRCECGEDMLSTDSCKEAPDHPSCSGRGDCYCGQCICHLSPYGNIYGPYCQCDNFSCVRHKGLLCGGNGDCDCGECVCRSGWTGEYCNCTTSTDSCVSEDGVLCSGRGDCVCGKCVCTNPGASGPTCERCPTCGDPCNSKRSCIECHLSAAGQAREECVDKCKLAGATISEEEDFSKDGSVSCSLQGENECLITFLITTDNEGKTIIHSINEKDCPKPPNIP

recombinant human integrin α5β1 (human), sequence (P08648 42-1049, chain 1 of 2): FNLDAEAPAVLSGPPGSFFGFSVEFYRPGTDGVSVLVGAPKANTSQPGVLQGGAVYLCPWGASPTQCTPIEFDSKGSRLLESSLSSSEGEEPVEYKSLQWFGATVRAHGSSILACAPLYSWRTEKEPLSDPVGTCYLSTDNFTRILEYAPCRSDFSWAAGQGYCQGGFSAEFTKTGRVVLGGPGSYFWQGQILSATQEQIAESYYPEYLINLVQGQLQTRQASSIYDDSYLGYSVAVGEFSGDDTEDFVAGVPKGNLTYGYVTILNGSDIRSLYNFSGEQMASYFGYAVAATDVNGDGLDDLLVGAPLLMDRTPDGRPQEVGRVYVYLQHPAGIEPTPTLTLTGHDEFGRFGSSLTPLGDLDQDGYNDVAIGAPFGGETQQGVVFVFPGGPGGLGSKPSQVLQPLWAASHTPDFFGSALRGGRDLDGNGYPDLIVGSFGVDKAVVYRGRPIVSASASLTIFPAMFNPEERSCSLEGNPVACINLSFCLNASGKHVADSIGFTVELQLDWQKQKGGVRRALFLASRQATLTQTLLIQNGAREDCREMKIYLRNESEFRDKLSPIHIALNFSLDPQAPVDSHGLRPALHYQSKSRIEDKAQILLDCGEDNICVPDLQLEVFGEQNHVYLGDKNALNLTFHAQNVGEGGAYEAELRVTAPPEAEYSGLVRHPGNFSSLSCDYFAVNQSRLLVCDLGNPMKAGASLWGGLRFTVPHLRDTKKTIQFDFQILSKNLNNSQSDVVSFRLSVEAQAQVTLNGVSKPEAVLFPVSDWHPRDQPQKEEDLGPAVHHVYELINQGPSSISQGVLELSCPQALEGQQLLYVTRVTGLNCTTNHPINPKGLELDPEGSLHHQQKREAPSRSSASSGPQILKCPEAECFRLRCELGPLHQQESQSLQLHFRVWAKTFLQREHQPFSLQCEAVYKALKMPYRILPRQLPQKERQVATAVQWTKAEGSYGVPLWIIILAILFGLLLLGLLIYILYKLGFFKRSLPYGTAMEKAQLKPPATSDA
recombinant human integrin α5β1 (human), sequence (P05556 21-728, chain 2 of 2, further chain): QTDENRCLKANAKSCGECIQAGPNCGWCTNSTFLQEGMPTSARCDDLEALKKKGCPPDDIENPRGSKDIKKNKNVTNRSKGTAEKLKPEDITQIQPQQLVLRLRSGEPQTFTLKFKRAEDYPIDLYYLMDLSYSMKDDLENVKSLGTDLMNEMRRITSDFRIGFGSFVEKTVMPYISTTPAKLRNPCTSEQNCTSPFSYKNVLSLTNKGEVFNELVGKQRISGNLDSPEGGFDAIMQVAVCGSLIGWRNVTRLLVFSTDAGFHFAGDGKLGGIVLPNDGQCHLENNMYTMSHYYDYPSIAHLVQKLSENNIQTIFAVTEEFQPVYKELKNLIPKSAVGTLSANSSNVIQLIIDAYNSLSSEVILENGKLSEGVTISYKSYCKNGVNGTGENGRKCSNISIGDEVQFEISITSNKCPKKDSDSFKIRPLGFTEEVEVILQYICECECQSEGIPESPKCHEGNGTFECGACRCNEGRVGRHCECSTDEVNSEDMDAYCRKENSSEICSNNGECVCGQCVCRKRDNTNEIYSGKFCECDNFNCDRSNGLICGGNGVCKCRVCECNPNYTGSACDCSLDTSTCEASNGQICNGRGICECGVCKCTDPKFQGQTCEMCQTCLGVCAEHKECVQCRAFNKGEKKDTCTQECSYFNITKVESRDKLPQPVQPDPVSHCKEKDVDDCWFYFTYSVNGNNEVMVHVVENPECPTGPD
recombinant human integrin αvβ5 (human), sequence (P06756 31-1048, chain 1 of 2): as the sequence (P06756 31-1048, chain 1 of 2) above
recombinant human integrin αvβ5 (human), sequence (P18084 24-719, chain 2 of 2, further chain): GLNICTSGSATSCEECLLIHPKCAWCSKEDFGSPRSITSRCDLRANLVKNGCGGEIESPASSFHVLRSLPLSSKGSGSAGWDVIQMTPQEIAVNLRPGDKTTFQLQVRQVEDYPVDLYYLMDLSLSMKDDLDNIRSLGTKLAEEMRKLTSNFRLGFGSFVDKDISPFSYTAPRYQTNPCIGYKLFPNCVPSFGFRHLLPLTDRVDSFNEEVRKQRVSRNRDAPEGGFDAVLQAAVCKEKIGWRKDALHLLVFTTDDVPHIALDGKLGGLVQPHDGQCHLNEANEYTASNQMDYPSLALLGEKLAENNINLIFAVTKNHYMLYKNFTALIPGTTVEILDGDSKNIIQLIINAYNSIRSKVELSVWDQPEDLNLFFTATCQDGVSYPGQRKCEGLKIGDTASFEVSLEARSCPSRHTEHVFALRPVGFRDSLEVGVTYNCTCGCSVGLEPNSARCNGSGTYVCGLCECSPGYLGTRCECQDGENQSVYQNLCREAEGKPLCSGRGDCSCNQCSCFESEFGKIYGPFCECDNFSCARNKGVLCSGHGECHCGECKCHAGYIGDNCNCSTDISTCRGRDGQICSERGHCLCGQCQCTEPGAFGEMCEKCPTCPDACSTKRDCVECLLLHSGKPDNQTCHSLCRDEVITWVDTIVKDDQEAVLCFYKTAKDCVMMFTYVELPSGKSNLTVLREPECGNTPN

| Binder | binding in percent of wild type CagL [1] [%] | binding in percent of wild type CagL [2] [%] | binding in percent of wild type CagL [3] [%] |
| --- | --- | --- | --- |
| B1 | < 50 | < 50 | < 50 |
| B2 | < 36 | < 36 | < 36 |
